Laboratory results published in IntAct's records for PubMed 23629652.

Biological target: klk5_human KLK5 (UniProt Q9Y337)
Sequence (Q9Y337 whole entry): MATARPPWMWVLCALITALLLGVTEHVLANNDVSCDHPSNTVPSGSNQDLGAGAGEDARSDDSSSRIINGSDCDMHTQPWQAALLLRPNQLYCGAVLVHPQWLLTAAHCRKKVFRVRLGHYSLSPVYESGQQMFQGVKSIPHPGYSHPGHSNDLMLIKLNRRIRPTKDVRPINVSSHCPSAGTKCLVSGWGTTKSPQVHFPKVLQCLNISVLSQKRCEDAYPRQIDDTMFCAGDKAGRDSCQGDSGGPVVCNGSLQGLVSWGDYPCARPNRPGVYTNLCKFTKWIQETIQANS

## Filaggrin (Homo sapiens), P20930 S3385H;Y3388H;Q3389H;S3391H;T3392H
  effect of a mutation on the interaction: disrupting interaction
